The target of assay [1] is T1, peptide of SEQ ID NO: 32 (YANNPRVVFNLNTYK) (human).
T1 construct: 15-mer on a peptide microarray (ProImmune)
T1 peptide: YANNPRVVFNLNTYK
Briefly: peptide microarray, fluorescent secondary antibody. How it is done:
(§1) Epitope mapping was performed by incubating monoclonal antibody (mAb) samples with a peptide microarray, followed by incubation with a fluorescent-labelled secondary antibody. After washing, the microarray was scanned in a high-resolution scanning system. The peptide microarray consisted of a set of 15-mer peptides overlapping by 10 residues taken from the human alpha-2 integrin subunit (Genbank accession number AAM34795.1; amino acid residues 1-1133 were used). Peptide arrays, antibody incubations, scanning and data analysis were generated by ProImmune Inc, 4281 Express Lane, Suite L2378, Sarasota, Fla. 34238.

Assay [2] concerns the target T2, peptide of SEQ ID NO: 33 (AIASIPTERYFFNVS) (human).
T2 construct: 15-mer on a peptide microarray (ProImmune)
T2 peptide: AIASIPTERYFFNVS
Put plainly: peptide microarray, fluorescent secondary antibody. As to the method:
as §1

B1: Ab 770.8 (antibody, V domains shown)
VH: EVKLEESGTVLARPGASVKMSCKASGYSFTSYWMHWVKQRPGQGLEWIGAFYPGNSEDKYNENFKIKAKLTAVTSVNTVYMELSSLTSEDSAVYYCTRGTTLVAPGFDVWGAGTTVTVSS
VL: DIVMTQSPAILSVSPGERVSFSCRASQSIGTSIHWYQQRTNGSPRLLIKYVSESISGIPSRFSGSGSGTDFTLTINSVESEDIADYYCQHSNRWPLTFGAGTKLELKR
notes: Mouse monoclonal antibody from a hybridoma, used as ascites or purified
As for B1, the binding result in assay [1] and in assay [2] was “binds” throughout.

B2: Ab 778.17 (antibody, V domains shown)
VH: QVQLQQPGAELVRPGTSVKLSCKASGYTFASYWMNWVSQRPEQGLEWIGRIDPYDSETHYNQKFKDKAILTVDKSSSTAYIQLNSLTSEDSAVYYCARLGRGPFAYWGQGTLVTVSA
VL: DIVMTQTPTSLAVSLGQRATISCRASESVDSYDNSFMYWYQQKPGQPPKLLIYFASNLESGVPARFSGSGSRTDFTLTIDPVEADDAATYYCQQNNEDPYTFGGGTKLEIKR
notes: Mouse monoclonal antibody from a hybridoma
With B2, the binding result in assay [1] and in assay [2] was “binds” each time.

For the origin of these results see patent US20120294865A1 (REGENTS OF THE UNIVERSITY OF MICHIGAN, published 2012).
